Measured values as given in the nanobody polyreactivity screen of Harvey et al. (2022).

Experiment: yeast display, Sf9 membrane polyspecificity reagent, FACS + sequencing; frameworks hold sequencing errors
How it was run: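 A nanobody's polyreactivity label depends on the gate it was sorted from. Yeast display cells were stained with 10% biotinylated, detergent-solubilized Sf9 membrane reagent for 1 hour at 4 °C, enriched on streptavidin microbeads and sorted by FACS. The low and high (top ~1%) gates were set on anti-HA fluorescence for expression and streptavidin fluorescence for reagent binding.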
In the case of “QVQLVESGGVLVQAGGSLRLTCAASGFIFKIYAMGWYRQAPGKERELVARITRSGGSTYYADSVKGRFTNSRDNAKNTVYLQMNSLKPEDTAVYYCNAELFRYVRYEYWGQGTQVTVSS”, the “polyreactivity (PSR sort gate)” value is reported as “high polyreactivity”.
For “QVQLVESGGVLVQAVGSLRLSCAASGRIFKNYAMGWYIQAPGKESELVAAISWSGGRTYYADSVKGRFTISRDNAKNTVYLQMNSLKPEDTAVYYCAVDFYYYGSRYYYWGQGTQVTVSS”, the “polyreactivity (PSR sort gate)” value was “high polyreactivity”.
In the case of “QVQLVESGGVLVQAVGSLRLSCAASGSISSYYAMGWYIQAPGKERELVAAITSGGRTYYADSVKGRFTISRDNAKNTVYLQMNSLKPEATAVYYCAADPDTWSPHYESLGYYWGQGTQVTVSS”, the “polyreactivity (PSR sort gate)” value is reported as “high polyreactivity”.
In the case of “QVQLVESGGVLVQEGGSLSLSCTASRSIFLKYAMGWYRQAPGKERELVAAISSRDASTYYADSVKGRFSISRDNAKKSVYLQMNSLKPEDTAVYYCNVAQNYWAGLYDYWGQGTQVTVSS”, the “polyreactivity (PSR sort gate)” value is reported as “high polyreactivity”.
In the case of “QVQLVESGLGIVQAGGSLRVSCAASGSTISNYAMGWYRHAPGKERELVAAITSGGTTNYADSVKGRFTISRDNAKNTVYFQMNSLIPEDTAVYYCAKRYSYHVPTHLWVEYYYWGQGTQVTVSS”, the “polyreactivity (PSR sort gate)” value is reported as “low polyreactivity”.
With “QVQLVESGLGLVQAGASLRVSCAASGSTFIFNTMGWSRQAPGKERELVAAIRLSGGSTYYADSVKGRFTITRDNAKNTVYLQMNSLNPEDTAVYYCARRLATRGHTYDYWGQGTQVTVSS” the “polyreactivity (PSR sort gate)” value was “low polyreactivity”.
For “QVQLVESGLGLVQAGGSLRLSCAASGFTFTGYAMGWYRQAPGKERELVAAITRGGGSTYYADSVKGRFTISRDNAKNTVYLQMNSLKPEDTAVYYCAAQRSRLIRISSPYYGHEYWVQGTQVTVSS”, the “polyreactivity (PSR sort gate)” value was “low polyreactivity”.
For “QVQLVESGLGLVQAGGSLRLSCAASGRTFYYNAMGWYRQAPGKERELVAAISWSGGNTYYADSVKARFTISRDNAKNTVYLQMNSLKPEDTAVYYCAAVYRYYPGYDYWGHGTQVTVSS”, the “polyreactivity (PSR sort gate)” value was “high polyreactivity”.
In the case of “QVQLVESGPGLFQAGGSLRLSCAASGNIFGYNVMAWYRQAPGKERELVAAITWSAGTTNYADSLKGRFTISRDNAKNTVYLQRNSLKPEDTAVYYFAVTWWYQDYDLTCYLYDYWGQGTEVTVSS”, the “polyreactivity (PSR sort gate)” value is reported as “low polyreactivity”.
For “QVQLVESGPGLVQAGGSLRLSCAASGSTFAPYALGWYRQAPGIEMELVAAIRSSGGSTYYADSVKGGFTISRDNAKNTVYLQMNSLKPEDTAVYYCADDYYTSADYVDYYYWGQGTQVTVSS”, the “polyreactivity (PSR sort gate)” value was “low polyreactivity”.
For “QVQLVESGRGFVQAGGSLRLSCADSGSTFRYYAMGWYRQAPGKERELVAAISWSGGSTYYADSVKGRFTISRDNAKNTVYLQMNSLKPEDTAVYYCAAEVYLVGSRWGPRYGDYWGQGTQVTVSS”, the “polyreactivity (PSR sort gate)” value was “high polyreactivity”.
With “QVQLVESGRGIVQAGGSLRLSCAASGSIFWLYAMGWYRQAPGKERELVAAISWSGTSTNYADSVKGRFTISRDNAKNTVYFQMNSLKPEDTAVYYCAKRWYNQKLFGYEEEYDYWGQGTQVTVSS” the “polyreactivity (PSR sort gate)” value was “low polyreactivity”.
In the case of “QVQLVESGRGIVQAGGSLRLSCAASGSTLNDYAMGSSRPAPGKERELVAAINGSGGSTYYADSVKGRFTISRDNAKNTVYLQMNSLKPEDTAVYYCAAATTHRRRYGYWGQGTQVTVSS”, the “polyreactivity (PSR sort gate)” value is reported as “low polyreactivity”.
For “QVQLVESGRGLFQAGGRLRLSCAASGRIFSFYAMGWSRQAPGKERELVASITSGGITNYADSVKGRFTISRDNAKNTVYLQMNSLKPEDTAVYYCNAANPYRRVGSFTYKYDYWGQGTQVTVSS”, the “polyreactivity (PSR sort gate)” value was “low polyreactivity”.
With “QVQLVESGRGLVQAGGILRLSCDASGRTIYFNRMGWYRHAPGKEREFVAAINRSGGSTYYADSVKGRFTISRDNAKNTVYLQMNSLKPEDTAVYYCAADGVIFEYDYWGQGTQVTVSS” the “polyreactivity (PSR sort gate)” value was “low polyreactivity”.
With “QVQLVESGRGLVQAGGRHRISCAASGSIIHDYAMGLYSQAPGKERELVAVISTSGGSTYYADSVKGRFTMSRDNAKNTVYLQMISLKPEETEVYYCNARTVGPYPSHAALEYDSWGPGTQVTVSS” the “polyreactivity (PSR sort gate)” value was “low polyreactivity”.
For “QVQLVESGRGLVQAGGRLRLSCAASGSTFDGYAMGLYRQAPGKERELVAAITVSVGSTYYADSVKGRFTISRDNAKNTVYLQMNSLKPEDTAVYYCAADYDYQYRYYYWGQGTKVTVSS”, the “polyreactivity (PSR sort gate)” value was “low polyreactivity”.
With “QVQLVESGRGLVQAGGSLRISCAASGFTFRKYTMGWNRQAPGKERELVAAISRRGGSTYYADSVKSRFTISRDNAKNTVYLQMNSLKPEVTAVYYCATDHIPSVGVDYWGQGTQVTVSS” the “polyreactivity (PSR sort gate)” value was “high polyreactivity”.
For “QVQLVESGRGLVQAGGSLRLRCAASGFTIYPYVMGWYRQAPGKERELVAAISWSGGRTSYADSVKGRFTISRDNAKNTVYLQMNSLKPEDTAVYYCATRPSHVLSEMDYWGQGTQVTVSS”, the “polyreactivity (PSR sort gate)” value was “low polyreactivity”.
For “QVQLVESGRGLVQAGGSLRLSCAASGFIFAKYDMGCYSKAPVKERELVAAITRSGARTYYADSVKGRFTISRDNAKTTVYLQMNSLKPEDTAVYYCAIVTTVYTYDYWGQGTQVTVSS”, the “polyreactivity (PSR sort gate)” value was “high polyreactivity”.
For “QVQLVESGRGLVQAGGSLRLSCAASGFTFYRYAMGWYRQAPGKERELVATISASGGSTYYADSVKGRFTISRDNAKNTVYLQMNSLKPVDTAVFYCARYIYRSAFDYWGQGTQVTVSS”, the “polyreactivity (PSR sort gate)” value was “high polyreactivity”.
In the case of “QVQLVESGRGLVQAGGSLRLSCAASGFTLICNARGCYRQAPGKERELVAAITWSGGSTYYADSVKGRFTISRDKAKNTVYLQMNSLKPEDTAVYYCAADYSIQSNDDWGQGTQVTVSS”, the “polyreactivity (PSR sort gate)” value is reported as “low polyreactivity”.
With “QVQLVESGRGLVQAGGSLRLSCAASGGTFGNNDMGWYRQAPGKERELVAAIRSAGTTYYADSVKGRFTISRDNAKNTVYLQMNSLKPEDTAVYYCNAYTTGYWSYGFQYYGEDYWGQGTQVTVSS” the “polyreactivity (PSR sort gate)” value was “low polyreactivity”.
In the case of “QVQLVESGRGLVQAGGSLRLSCAASGITFYTYAMGWYRQEPGKARELVATISSGGSTDYADSVKGRFTISRDNAKITVYLQMNSLKPEDTAVYYCADQYSYRIYYLYDYWGQGTQVTVSS”, the “polyreactivity (PSR sort gate)” value is reported as “low polyreactivity”.
In the case of “QVQLVESGRGLVQAGGSLRLSCAASGLIFGRNAMGWYIQAPGKERECVAANTSGGSTYYADSVKGRFTISRDNAKNSVYLQMNSLKPEDTAVYYCAADVVDLYLLDYWGQGTQVTVSS”, the “polyreactivity (PSR sort gate)” value is reported as “low polyreactivity”.
With “QVQLVESGRGLVQAGGSLRLSCAASGLTFGHYAMGGYRQAPGKERELVAAITSGGRTYYADSVKGRFTISRDNAKNTVYLQMNSLKPEDTAVYYCATRGPRYRYYYWGQGTQVTVSS” the “polyreactivity (PSR sort gate)” value was “high polyreactivity”.
In the case of “QVQLVESGRGLVQAGGSLRLSCAASGRIFNLNAMGWYRQAPGKERELVAAITRGGRTIYADSVKGRFTISRDNAQNTVYLQMNSLKPEDTAVYYCAAAYYGSHGRYDYWGQGTQVTVSS”, the “polyreactivity (PSR sort gate)” value is reported as “high polyreactivity”.
For “QVQLVESGRGLVQAGGSLRLSCAASGRIFSIYAMGWYRQAPGKERELVAAITRGGRTNYADSVKGRFTISRDNAKNTVYLQMNSLKPEDTAVYYCAARRIDGVVKPYDYWGQGTQVTVSS”, the “polyreactivity (PSR sort gate)” value was “low polyreactivity”.
For “QVQLVESGRGLVQAGGSLRLSCAASGRIFVHYAMGWYRQAPGKERELVAAITYSGDSTYYADSVKGRFTISRDNAKNTVYLQMNSLKPEDTAVYYCNAVVRRVLFDYDYWGQGTQVTVSS”, the “polyreactivity (PSR sort gate)” value was “high polyreactivity”.
With “QVQLVESGRGLVQAGGSLRLSCAASGRSFAVYAMAWYRPAPGKVMELVAAISSGGSTYYADSVKGRFTSSRDNAKNTVYVQMNSLKPEDSSVSYCAAGWKRLSGRKHYYWGQGTQVTVSS” the “polyreactivity (PSR sort gate)” value was “high polyreactivity”.
In the case of “QVQLVESGRGLVQAGGSLRLSCAASGRTFPFYAMGWYRQAPGKEREFVAAITASGDSTYYADSVKGRFTISRDNAKNTVYFQMHSLKPEDTAVYYCAADLPVWYVTRYDYWGQATQVTVSS”, the “polyreactivity (PSR sort gate)” value is reported as “low polyreactivity”.
In the case of “QVQLVESGRGLVQAGGSLRLSCAASGRTFRGNAMGWYREAPGKERELVAAIRYRGGSTYYADSVKGRFTISRDNAKNTVYLQMNSLKPEDTAVYYCARRYTVHTQHYDYWGQGTQVNVSS”, the “polyreactivity (PSR sort gate)” value is reported as “high polyreactivity”.
In the case of “QVQLVESGRGLVQAGGSLRLSCAASGRTFWIYAMGWYRQAPGKERELVAAISRGGSTYADSVKGRFTISRDNAKNTVYLQMNSLKPEDTAVYYCAASTPQYQYYYWGQGTQVTVSS”, the “polyreactivity (PSR sort gate)” value is reported as “high polyreactivity”.
For “QVQLVESGRGLVQAGGSLRLSCAASGRTFWTYTMGCYRQAPWKEREFVAAITFGDGSTSYADYVKGRFTISRDNAKNTVFLQMNSLKQEDTAVYYCAKRWRRRFVDVWSLYDYWGHGTQVTVSS”, the “polyreactivity (PSR sort gate)” value was “low polyreactivity”.
With “QVQLVESGRGLVQAGGSLRLSCAASGRTFYSNTMGWSRQAPGKERELVAVISNGGSTYYADSVKGRFTISRDNAKYTVYLQMNSLKPEETAVYYCAARSRDRYRGNYWGQGTQVTVSS” the “polyreactivity (PSR sort gate)” value was “high polyreactivity”.
For “QVQLVESGRGLVQAGGSLRLSCAASGRTFYYYAMGWYRQAPGKERELVAAISRSGTRTYYADSVKGRFTISRDNAKNTVYLQMNSLKPEDTAVYYCAAVGAAGQDNYWGQGTQVTVSS”, the “polyreactivity (PSR sort gate)” value was “high polyreactivity”.
With “QVQLVESGRGLVQAGGSLRLSCAASGSIFGRNAMGWYRQAPGKERELVAAITWRGGRTYYADSVKGRFTISRDNAKNTVYLQMNSLKPEDTAVYYCAAVVAYQYTGYRFDYWGQGTQVTVSS” the “polyreactivity (PSR sort gate)” value was “high polyreactivity”.
For “QVQLVESGRGLVQAGGSLRLSCAASGSIFYYLAKGWYRQAPGKERELVAVIDFSGASTSYADSVKGRFTISRDNAKNTVYLQMNSLKPEDTAVYYCAADRFRRKVRVDYWGQGTQVTVSS”, the “polyreactivity (PSR sort gate)” value was “low polyreactivity”.
For “QVQLVESGRGLVQAGGSLRLSCAASGSILVFYAMGWYRQAPGKERELVATITGSVGRTSYADSVKGRFTISRDNAKNTVYLQMNSLKPEDSAVYYCAADADTDVFYILQEYDYWGQGTQVTVSS”, the “polyreactivity (PSR sort gate)” value was “low polyreactivity”.
For “QVQLVESGRGLVQAGGSLRLSCAASGSTFKDYPMGWYRQAPGKESELVARISTRVGSTYYPDSVKGRFTISRDNAKNTVYLQMNRLNPEDTAVFYCNARWWYPPYYYWGQGTQVSVSS”, the “polyreactivity (PSR sort gate)” value was “high polyreactivity”.
With “QVQLVESGRGLVQAGGSLRLSCAASGSTFLDYAMGWYRQAPGKERELVAAINGSGSRTYYADSVKGRFTISRDNAKNTVYLQMNRLKPEDTAVYYCAHEYGYWGQGTQVTVSS” the “polyreactivity (PSR sort gate)” value was “low polyreactivity”.
In the case of “QVQLVESGRGLVQAGGSLRLSCAPSGSTIQDYAMGWYRQAPGKERELVAAISWRSDITYYAESVKGRFTISRDNAKNTVYLQMNSLKPEDTAVYYCAADNSYHWLDREFDYEFDYWGQGTQVTVSS”, the “polyreactivity (PSR sort gate)” value is reported as “high polyreactivity”.
In the case of “QVQLVESGRGLVQAGGSLRLSCASSGFTLSPNAMRWYRPAPGKEREFVAAISQRGGSTYYADSVKGRFTISRDNAKNTVYLQMNSLKPEDTAVYYCARDTKYKYDFWGQGTQVTVSS”, the “polyreactivity (PSR sort gate)” value is reported as “low polyreactivity”.
